Patent US20260069689A1 (Regeneron, published 2026)
Where “and” joins values, the source holds several entries; their conditions need not be identical. Equal entries are not always repeated.

Key:
[1] = target: T1, SARS-COV-2 RBD-MMH (SARS-COV-2 RBD extracellular domain with C-terminal myc-myc-hexahistidine tag) (SARS-CoV-2)
[2] = target: SARS-CoV-2 RBD.mmh (Spike amino acids Arg319-Phe541 with C-terminal myc-myc-6-Histidine tag) (SARS-CoV-2, UniProt P0DTC2 319-541)
[3] = target: T1, SARS-COV-2 RBD-MMH (SARS-COV-2 RBD …); experiment: SPR 37C, mAb captured, pH 7.4 vs pH 6.0

Row | Binder | koff [1] | t½ at pH 6.0 [1] | t½ at pH 7.4 [1] | IC50 [2] | t½ Ratio of pH 7.4 to pH 6.0 [3]
1 | mAb14292 (antibody, V domains shown) VH: EVQLVESGGGLVQPGGSLRLSCVASGFAFSTYEMNWVRQAPGKGLEWVSYISSSGSTIYYADSVKGRLTISRDNVKNSLYLQMNSLRVEDTAIYYCARDAIRNNDILTDPATFDPWGQGTLVTVSS VL: not shown | 0.00141 s⁻¹ and 0.00178 s⁻¹ | 6.5 min | 8.2 min | 0.254 nM | 1.3
2 | mAb14315 (antibody, V domains shown) VH: QVQLVQSGAEVKKPGSSVKVSCKASGDTFSTYAINWVRQAPGQGLEWMGRFIHIFGTANYAQKFQGRVTITADESTSTAYMELRSLRSEDTAVYYCARDGVDYGDYRPDYWGQGTLVTVSS VL: EIVLTQSPGTLSLSPGERATLSCRASQSVSSNYLAWYQQKPGQAPRLLIYGASSRATGIPERFSGSGSGTDFTLTISRLEPEDFAVYYCQQYGSSLYTFGQGTKLEIKR | 0.000946 s⁻¹ | 12.2 min | 11.8 min | 17.2 nM | 1
3 | mAb14284 (antibody, V domains shown) VH: QITLKESGPTLVKPTQTLTLTCTFSGFSFSTSGVGVGWIRQPPGKTLEWLALIYWDDDKRYSPSLKSRLTITKDTSKNQVVLTMTNMDPVDTATYFCAHHGIPTIFGYWGQGALVTVSS VL: QSALTQPASVSGSPGQSITISCTGTSSDLGVFNYVSWYQQHPGKAPKLMIYEVTNRPSGVSNRFSGSKSGNTASLTISGLQAEDEADYYCSSYTTSSTVFGGGTKLTVLG | 0.000574 s⁻¹ | 20.1 min | 18.5 min | 0.367 nM | 0.9
4 | mAb14313 (antibody, V domains shown) VH: EVQLVESGGGLVQPGRSLRLSCVASGFTFDDSAMHWVRQPPGKGLEWVSGISWNSGIIGYAESVKGRFIISRDNAKNSLFLHMRGLRPEDTAVYYCARDRLELSYYYYGMDVWGQGTTVTVSS VL: not shown | 0.00251 s⁻¹ and 0.0041 s⁻¹ | 2.8 min | 4.6 min | 16.4 nM | 1.6
5 | mAb14281 (antibody, V domains shown) VH: QVQLVQSGADVKKPGASVKVSCKTSGYIFTGYYIHWVRQAPGQGLEWMGWINPNSGGTNSAQKFQGRVTMTRDTSISTVYMELSRLRSDDTAVYYCAKSNSFSVLDYNFDYWGQGTLVTVSS VL: SSELTQDPAVSVALGQTVRITCQGDSLRSYYASWYQQKPGQAPVLVIYDKNNRPSGIPDRFSGSSSGNTASLTITGAQAEDEADYYCNSRDSSRNHLVVFGGGTKLTVLG | 0.00734 s⁻¹ | 1.6 min | 1.8 min | 0.397 nM | 1.1
6 | mAb15156 (antibody, V domains shown) VH: QLQLQESGPGLVKSSETLSLTCTVSASITGSTYYWGWIRQPPGKGLEWIGSIYYSGTTYYKASLKSRVTISVDTSKNQFSLKLTSVTVADTAVYYCVSHLLGNYHKYGMDVWGQGTTVTVSS VL: not shown | 0.0097 s⁻¹ | 1.2 min | 1.7 min | 0.269 nM | 1.4
7 | mAb14294 (antibody, V domains shown) VH: EVQLVESGGGLVQPGGSLRLSCAASGFTFSNHWMDWVRQAPGKGLVWVSRINSDGSSTDYADSVRGRFTMSRDNAKNTLYLQMSSLRAEDTAVYYCAREGMIFGAVIIPGWYFDLWGRGALVTVSS VL: EIVLTQSPGTLSLSPGERATLSCRASQSVSSSQLAWYQQKPGQAPRLLIYGASSRATGIPDRFSGSGSGTDFTLTISRLEPEDFAVYYCQQYDSFGQGTKLEIKR | 0.000565 s⁻¹ | 20.5 min | 12.6 min | 0.244 nM | 0.6
8 | mAb14282 (antibody, V domains shown) VH: QVQLVQSGAEVKKPGASVKVSCKASGYIFTDHYMHWVRQAPGQGLEWMGWINPNSGATNYAQNFQGRVTMTRDTSIITVYMELSRLRSDDTAVYYCARDSSPYMIRYTMDVWGQGTTITVSS VL: QSALTQPASVSGSPGQSITISCTGTSSDVGSYNLVSWYQQHPGKAPKLMIYELTKRPSGVSNRFSGSKSGNTASLTISGLQAEDEADYYCSSYRGSVTDVVFGGGTKLTVLG | 0.00985 s⁻¹ | 1.2 min | 0.9 min | 0.502 nM | 0.8
9 | mAb14285 (antibody, V domains shown) VH: QVQLVQSGAEVKKPGASVKVSCKASGYTFTGYFIHWVRQAPGQGLEWMGWISPISGGTNYAQKFQGRVTVTRDTSITTAYMELSRLTSDDTAVYHCAREGGTWKGDFDYWGQGTLVTVSS VL: QSALTQPASVSGSPGQSITISCTGTSSDVESYNLVSWYQQHPGKAPKLMIYEGSKRPSGVSNRFSGSKSGNTASLTISGLQAEDEADYYCSSYAGSSTWVFGGGTKLTVLG | 0.0144 s⁻¹ | 0.8 min | 0.4 min | 1.7 nM | 0.5
10 | mAb14289 (antibody, V domains shown) VH: QVQLVQSGPEVKKPGASVKVSCKASGYTFTSYAISWVRQAPGQGLEWMGWISAYNGNTNYAQKLQGRVTMTTDTFTSTAYMELRSLRSDDTAVYYCAVPADHITFDYWGQGTLVTVSS VL: EIVLTQSPGTLSLSPGERATLSCRASQSVSSYLAWYQQKPGQAPRLLIHGASSRATGIPDRFSGSGSGTDFTLTISRLEPEDFAVYYCQQYGSSFLTFGGGTKVEIKR | 0.00272 s⁻¹ | 4.2 min | 6.2 min | 0.378 nM | 1.5
11 | mAb14283 (antibody, V domains shown) VH: QVQLQESGPGLVKPSGTLSLTCDVSGGSISSNNWWSWVRQRPGKGLQWIGEIYHNENTNYNPSLKSRVIMSIDKSKNQFSLKLTSVTAADTAVYYCARGDVLDWFDPWGQGTLVTVSS VL: QSALTQPASVSGSPGQSTTISCTGTSSDVGGYNYVSWYQQYPGKAPKLMIYDVTNRPSGVSHRFSGSKSGNTASLTISGLQAEDEADYYCSSYTSSSTVIFGGGTKLTVLG | 0.002 s⁻¹ | 5.8 min | 6.9 min | 0.373 nM | 1.2
12 | mAb14286 (antibody, V domains shown) VH: QVQLVQSGAEVKKPGASVKVSCKASGYTFTDYFIHWVRQAPGQGLEWMGWINPTSGGTNYAQKFRGRVTMTRDTSISTAYVELSRLRSDDTALYYCARDLPFYSDTKQFDYWGQGTLVTVSS VL: QSALTQPASVSGYPGQSITISCTGTSSDVGGYNYVSWYQQHPGKAPKLMIFDVSNRPSGVSNRFSGSKSGNTASLTFSGLQAEDEADYYCSSYTSSSTLVFGGGTKLTVLG | 0.00999 s⁻¹ | 1.2 min | 1.2 min | 0.641 nM | 1
13 | mAb14312 (antibody, V domains shown) VH: EVQLVESGGGLVQPGGSLRLSCAASGFTVSRSYMTWVRQAPGKGLEWVSVIFTGGRTDHADSVKGRFTISRHNSKNTLYLQMNSLRTEDTAVYYCARVAIVGATGAFDIWGQGTMVTVSS VL: QSVLTQPPSVSGAPGQRVTISCTGSSSNIGAGDDVHWYQQLPGTAPKLLIYGNSNRPSGVPDRFSGSKSGTSASLAITGLQAEDEADYYCQSYDSSLSGSVVFGGGTKLTVLG | 0.00177 s⁻¹ | 6.5 min | 13.5 min | 0.134 nM | 2.1
